Experiment [1] concerns the target T1, NHERF1 PDZ1 domain (human, UniProt O14745 1-139).
T1 sequence (looked up): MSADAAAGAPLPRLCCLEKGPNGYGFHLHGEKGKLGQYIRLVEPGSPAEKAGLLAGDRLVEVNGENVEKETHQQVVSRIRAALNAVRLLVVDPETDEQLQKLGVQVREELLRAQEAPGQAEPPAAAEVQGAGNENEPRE
Nature of the experiment: fluorescence polarisation. A general note: Polarisation of emitted light reports the rotation of a fluorescent probe.

Experiment [2] has as its target T2, CAL PDZ domain (UniProt Q9HD26-2 278-362). Nature of the experiment: fluorescence polarisation.
In experiment [3] the target is T2, CAL PDZ domain. Nature of the experiment: fluorescence polarisation. This is another data set of the same source.
Experiment [4] has as its target T1, NHERF1 PDZ1 domain. Nature of the experiment: fluorescence polarisation. The source holds these as a separate data set.
The target in experiment [5] is T1, NHERF1 PDZ1 domain. Nature of the experiment: fluorescence polarisation. The source holds these as a separate data set.
The target of experiment [6] is T1, NHERF1 PDZ1 domain. Nature of the experiment: SPR. Background: In SPR one partner is held on a chip, and binding of the other changes the refractive index at the surface.
Experiment [7] addresses T1, NHERF1 PDZ1 domain. In words: ITC. (Isothermal titration calorimetry measures the heat released or taken up as one component is titrated into another.)
The target of experiment [8] is T1, NHERF1 PDZ1 domain. Nature of the experiment: ITC. The source holds these as a separate data set.
In experiment [9] the target is T2, CAL PDZ domain. Nature of the experiment: peptide or protein array.

Broadly, the Ki is a dissociation constant, usually derived from enzyme kinetics or from competition with a known ligand. Read a low Ki as tighter binding. As a reminder, the Kd is the free concentration of one partner at which half of the binding sites on the other are occupied at equilibrium, for simple one-to-one binding.

Read-outs that look alike come from different tables or passages of the source. No end group written: not given here.

B1: C-CFTR6 (peptide)
peptide: CVQDTRL
Turning to B1, in experiment [1], the affinity, expressed as Ki, was 0.67 ± 0.097 µM.

B2: C-NR2A10 (peptide)
peptide: CKKMPSIESDV
Take B2: the Ki in experiment [2] is 1940 ± 920 µM.

B3: C-SSR5_(10) (peptide)
peptide: CANGLMQTSKL
Consider B3, for which the Ki in [2] is 37.6 ± 4 µM; in [3], 22.6 ± 7.1 µM.

B4: C-CFTR4 (peptide)
peptide: CDTRL
Turning to B4, the Ki was 0.949 µM in experiment [4] and 1.52 ± 0.078 µM in experiment [1].

B5: C-FRZ8_(10) (peptide)
peptide: CYPKQMPLSQV
Molecule B5 displayed a Ki in experiment [2] of 47 ± 10 µM.

B6: F*-CFTR10 (peptide)
peptide: fluorescein-TEEEVQDTRL
Molecule B6 displayed a dissociation constant Kd in [5] of 0.279 ± 0.021 µM.

B7: C-NLG10 (peptide)
peptide: CHPHSHSTTRV
B7: the affinity in experiment [2] corresponds to a Ki of 158 ± 19 µM.

B8: F*GG-CFTR16 (peptide)
peptide: fluorescein-GGAALKEETEEEVQDTRL
B8 had a Kd in experiment [5] of 0.116 ± 0.01 µM.

B9: C-AIC3A10 (peptide)
peptide: CHRTCYLVTQL
B9 had a Ki in experiment [2] of 42.2 ± 4.2 µM.

B10: C-CFTR10 (peptide)
peptide: CTEEEVQDTRL
As to B10, the Ki in experiment [2] was determined as 690 ± 120 µM; in [1] it was 0.597 ± 0.077 µM. The dissociation constant Kd in [6] amounted to 0.0103 µM.

B11: C-β1AR10 (peptide)
peptide: CRPGFASESKV
As for B11, the Ki in experiment [2] amounted to 510 ± 110 µM; in experiment [3], 410 ± 190 µM.

B12: C-βCAT10 (peptide)
peptide: CNQLAWFDTDL
B12 showed a Ki in experiment [2] of 1110 ± 480 µM.

B13: F*C-CFTR4 (peptide)
peptide: C(fluorescein‑5‑maleimide)DTRL
B13 gave an equilibrium dissociation constant (Kd) in experiment [5] of 0.949 ± 0.089 µM.

B14: C-CL1_(10) (peptide)
peptide: CDGQMQLVTSL
B14 gave an inhibition constant Ki in experiment [2] of 88.3 ± 6.3 µM.

B15: C-ClC3B10 (peptide)
peptide: CEVYLLNSTTL
Regarding B15, the Ki in [2] came out at 93 ± 8.5 µM; in [3], 110 ± 60 µM.

B16: CFTR10 (peptide)
peptide: TEEEVQDTRL
On to B16, for which the dH in [7] is -9.11 kcal/mol. In experiment [8], the affinity, expressed as Kd, was 0.787 ± 0.055 µM; the dH is -10.4 ± 0.19 kcal/mol; the “dH extrapolated to 37 °C” value was -12.2 kcal/mol.

B17: C-GluRδ1_(10) (peptide)
peptide: CALDTSHGTSI
As to B17, the affinity in experiment [2] corresponds to a Ki of 875 ± 56 µM.

B18: C-FRZ5_(10) (peptide)
peptide: CYHKQVSLSHV
With B18, the affinity in experiment [2], expressed as Ki, was 451 ± 42 µM.

B19: C-GluRδ2_(10) (peptide)
peptide: CGNDPDRGTSI
In turn, B19 registered a Ki in [2] of 560 ± 130 µM.

B20: C-RTKN10 (peptide)
peptide: CQPRTWLQSPV
In turn, B20 showed an inhibition constant (Ki) in experiment [2] of 229 ± 16 µM.

B21: CGG-CFTR16 (peptide)
peptide: CGGAALKEETEEEVQDTRL
For B21, the Ki in experiment [1] was 0.209 ± 0.064 µM.

B22: C-SDK2_(10) (peptide)
peptide: CAPIAGFSSFV
As to B22, the Ki in experiment [2] was 150 ± 20 µM.

B23: CFTR C-terminal undecamer peptide on the HUMLIB array (peptide, UniProt P13569 1470-1480, looked up)
peptide: ETEEEVQDTRL
For B23, the binding result in [9] is listed as “binds”.

B24: SSR5 C-terminal undecamer peptide on the HUMLIB array (peptide, UniProt P35346 354-364, looked up)
peptide: AANGLMQTSKL
For the molecule B24, in experiment [9], the binding result is given as “binds”.

B25: C-NLG2_(10) (peptide)
peptide: CLPHPHSTTRV
As for B25, the affinity in experiment [2], expressed as Ki, was 107 ± 1.7 µM.

These data come from PMC2582146 (Biochemistry, 2008).
